According to the RNAGym collection of RNA variant scans (doi:10.1073/pnas.2313332121):
This sample holds only a part of the variants without activity.

B1: TPR 5TU (parent)
chain: GGAUCUUCUCGAUCUAACAAAAAAGACAAAUCUGCCACAAAGCUUGAGAGCAUCUUCGGAUGCAGAGGCGGCAGCCUUCGGUGGCGCGAUAGCGCCAACGUUCUCAACUAUGACACGCAAAACGCGUGCUCCGUUGAAUGGAGUUUAUCAUG

Variants of: B1
Test: polymerase ribozyme fitness, log enrichment relative to wild type (log ratio); higher = more active; in vitro selection for triplet polymerase activity
Summary of the method: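 Streptavidin-bead capture of gel-excised extended constructs, followed by RT-PCR, closed a single triplicate in vitro selection round. That round began by annealing PCR-built, transcribed mutant libraries of each subunit of a heterodimeric triplet polymerase ribozyme with a biotinylated primer, the partner subunit and triplets, then incubating them frozen at −7 °C. After Illumina sequencing of inputs and outputs, genotypes needed ≥10 input reads and ≥1 read per output. Fitness is the base-2 logarithm of genotype enrichment over wild-type enrichment, using inverse-variance-weighted replicate averages.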

Row | Variant | polymerase ribozyme fitness (log ratio)
1 | GGACCUUCUCGAUCUAACUAAAAAGACAAAUCUGCCACAAAGCUUGAGAGCAUCUUCGGAUGCAGAGGCGGCAGCCUUCGGUGGCUCGAUAGCGCCAACGUUCUCAACUAUGACACGCAAAACGCGUGCUCCGUUGAAUGGAGUUUAUCAUG [U4C A19U G86U] | -2.06
2 | GGACCUUCUCGAUCUAACAAUAAAGACAAAUCUGCCACAAAGCUUGAGAGCAUCUUGGGGUGCAGAGGCGGCAGCCUUCGGUGGAGCGCUAGCACCAACGUUCUCAACUAUGACACGCAAAACGCGUGCUCCGUUGAAUGGAGUUUAUCAUG [U4C A21U C57G A60G C85A A89C G94A] | -2.06
3 | GGACUUUCUCGCUCUAACAAAAAACACAAAUCUGCCACAUAGCUUGAGAGCAUCUUCCGAUGCAGAGGCGGCAGCCUUCGGUGGCGCGAUAGCGCCAACGUUCUCAACUAUGACACGCAAAACGCGUGCUCCUUUGAAUGGAGUUUAUCAUG [U4C C5U A12C G25C A40U G58C G133U] | ≤ -4.2
4 | GGACCUUCUCGAUCUCACAAAAAAGACAAAUCUGCCACAAAGCUUGAGAGCAUCAUCGGAUGCAGAGGCGGCAUCCUUCGGUGGUGUGAUAGCGCCAACGUUUUCAACUAUGACACGCAAAACGCGUGCUCCGUUGAAUGGAGUUACUCAUG [U4C A16C U55A G74U C85U C87U C103U U146A A147C] | ≤ -4.2
5 | GGACUUUCUCGAUCUAACACAAAAGACAAAUCUGCCACAAAGCUUGAGAGCAUCUUCGGAUGCAGAGGCGGCAGCCUUCGGUGGCGAGAUAGCGCCACCGUUCUCAACUAUGACACGCAAAACGCGUGCUCCUUUGAAUGGAGUUUAGCAUG [U4C C5U A20C C87A A98C G133U U148G] | ≤ -4.2
6 | GGACCUUCUCGGUUUAACAAAAAAGACAAAUCUGCCACAGAGCUUGAGAACAUCUUCGGAUGCAGAGGCGGCAGCCUUCGGUGUCGCGAUAGCGCCAACGUUCUCAACUAUGACACGCAAAACGCGUGCUCCGUUGAAUGGAGUCUAUCAUG [U4C A12G C14U A40G G50A G84U U145C] | ≤ -4.2
7 | GGACCUUCUCGAUCUAGAAAAAAAGACAAAUCUGCCACAAAGCUUGAGAGCAUCUUAGAAUGCAGAGACGGCAGCCUUCGGUGGCGCGAUAGCGCAAACGUUCUCAUCUAUGACACGCAAUAGGCGUGCUCCGUUGAAUGGAGUUUAUCAUG [U4C A17G C18A C57A G59A G68A C96A A107U A121U C123G] | ≤ -4.2
8 | GGACAUUCUUGAUCUAACAAAAAAGACAAAUCAGCCACAAAGCUUGAGAGCAUCUUCGGAUGCAGAGGCGGCAGCCUUCGGUGGCGCCAUAGCGCCAACGUUCUCAACUAUGACAUGCAAAACGCGUGCUCCGUUGAAUAGAGUUUAUCAUG [U4C C5A C10U U33A G88C C116U G140A] | ≤ -4.2
9 | GGACCUUCUCGAUCUAACGAAAAAGACAAAUCUGCCACAAAGCUUGAGAGCAUCUUCGGAUGCAGAGGCGGCAGCGUUCGGUGGCUCGGUAGCGCCAACGUUCUCCACUAUGACACGCAAAACGCGUGCUCCGGUGAAUGGAGUUUAUCAUG [U4C A19G C76G G86U A89G A106C U134G] | ≤ -4.2
10 | GGACGUUCUCGAUCUAACAUAAAAGACAAAUCUGCCACAAAGCUUGAGAGCAUCUUCGGAUGCAGAGGCGGCAGCCUUCGGUGGCGCGAUAGCGCCAACGUUCUCAACUAUGACACGCAAAACGCGUGCUCCGUUGAAUGGAGUUUAUCAUG [U4C C5G A20U] | -1.25
11 | GGACCUUCUCGAUCUAACAAAUAAGACAAAUCUGCCACAAAGCUUGAGAGCAUCUUCGGAUGCAGAGGCGGCUGCCUUCGGUGGCGCGAUAGCGCGAACGUUCUCAACUAUGACACGCAGAACGCGUGCUCCGUUGAAUGGAGUUUAUCAUG [U4C A22U A73U C96G A120G] | -2.21
12 | GGACCUUCUCGAUCUAACAAAGAAGACAAAUCUGCCACAAAGCUUGAGAGCAUCUUCGGAUGCAGAGGCGGCAGCCUUCGGUGGCACGAUAGCGCCAACGUUCUCAACUAUGACACGCAAAACGCGUGCUCCGUUGAAUGGAGUUUAUCAUG [U4C A22G G86A] | -1.64
13 | GGAACUUCUCGAUCUAACAAAAAAGACAAAUCUGCCACAAAGCUUGAGAGCAACUUCGGAUGCAGAGGCGGCAGCCUUCGGAGGCGCGAUUGCGCCAACGUUCUCAACUAUGACGCGCAAAACGCGUGCUCCGUUGAAUGGAGUUUAGCAUG [U4A U53A U82A A91U A115G U148G] | ≤ -4.2
14 | GGACCUUCUCGAUCUAUCAAAAAAGACAAAUCUGCCACAAAGCUUGAGAUCAUCUUCAGAUGCAGAGGCGGCAGCCUUCGGUGGCGCGAUACCGCCAAUGUUCUCAACUAUGACACUCAAAACGCGUGCUCCGUUGAAUGGAGUUUAUCAUG [U4C A17U G50U G58A G92C C99U G117U] | ≤ -4.2
15 | GGACCUUCUCGAUCUACCAAAAAAGACAAAUCUGCCACAAAACUUGAGACCAACUUCGGAUACAGAGGCGGCAGCCUUCGGUGGCGCGAGAGCGCCAACGUUCUCAACUAUGACACGCAUAACGCGUGCUCCGUUGAAUGGAGUUUAUCAUG [U4C A17C G42A G50C U53A G62A U90G A120U] | ≤ -4.2
16 | GGACCUUCUCGAUCUCCCAAAAAAGACAAAUCUGCCACAAAGCUUGAGAGCAUCUUCGGAUGCAGAGGCGGCAGCCUUCGGUGGCGCGAUAGCGCCAACGUUCUCAACUAUGACACGCAAAACGCGUGCUCCGUUGAAUGGAGUUUAUCAUG [U4C A16C A17C] | -0.602
17 | GGACCUUCUCGAUCUAACAAAAAAGACAAAUCUGCCACAAAGCUUGUGAGCAUCUUCGGAUGCAGAGGCGGCAGCCUUCGGUGGUGCGAUAGCGCCAACGUUCUAAACUAUGACAGGCAAAACGCGUGCUCCGUUGAAUGGAAUUUUUCAUG [U4C A47U C85U C105A C116G G143A A147U] | ≤ -4.2
18 | GGACCUUCUCGAUCUCACUAAAAAGACAAAUCUGCCACAAAGCUUGAGAGCAUCUUCGGAUGCAGAGGCGGCAGCCUUCGGUGGCUCGAUAGCGCAAACGUUCUCAAAUAUGACACGCAAAACGCGUGCUCCGUUGAAUGGAGUUUAUCAUG [U4C A16C A19U G86U C96A C108A] | ≤ -4.2
19 | GGACCUUCUCGAUCUAACAGAAAAGACAAAUCUGCCACAAAGCUUGAGAGCAUCUUCGGAUGCAGAGGCGGCAGCCUUCGGUGGAGCGAUAGCGCCACCGUUCUCAACUAUGACGCGCAAAACGCGUGCUCCGUUGAAUGGAGUUUAUCAUG [U4C A20G C85A A98C A115G] | -2.8
